The target in experiment [1] is T1, SARS-CoV-2 nucleocapsid protein (N) (SARS-CoV-2, UniProt P0DTC9 1-419). Briefly: BLI.
Experiment [2] concerns the target T1, SARS-CoV-2 nucleocapsid protein (N). Briefly: BLI. This is another data set of the same source. (BLI is a label-free optical method that tracks binding on a fibre tip over time.)

In paper PMC9348789 (2022) one finds koff and Kd data, which are given here for 9 molecules.

The term koff denotes a measure of how fast the partners let go of each other. A lower koff goes with a long-lived complex. One may read the Kd as the equilibrium constant for the complex coming apart. Low values mean tighter binding, high ones weaker binding.

B1: CCL21 (ligand)
chain: SDGGAQDCCLKYSQRKIPAKVVRSYRKQEPSLGCSIPAILFLPRKRSQAELCADPKELWVQQLMQHLDKTPSPQKPAQGCRKDRGASKTGKKGKGSKGCKRTERSQTPKGP
Turning to B1, the koff in experiment [1] came out at 0.0014 s⁻¹. For the same molecule, the affinity in experiment [2], expressed as Kd, was 14 nM.

B2: CXCL4 (ligand)
chain: EAEEDGDLQCLCVKTTSQVRPRHITSLEVIKAGPHCPTAQLIATLKNGRKICLDLQAPLYKKIIKKLLES
B2 had a koff in experiment [1] of 0.00053 s⁻¹. In experiment [2], the equilibrium dissociation constant (Kd) was 170 nM.

B3: CXCL11 (ligand)
chain: FPMFKRGRCLCIGPGVKAVKVADIEKASIMYPSNNCDKIEVIITLKENKGQRCLNPKSKQARLIIKKVERKNF
B3 returned a koff in experiment [1] of 0.0033 s⁻¹. The Kd in experiment [2] is 130 nM.

B4: CCL28 (ligand)
chain: SEAILPIASSCCTEVSHHISRRLLERVNMCRIQRADGDCDLAAVILHVKRRRICVSPHNHTVKQWMKVQAAKKNGKGNVCHRKKHHGKRNSNRAHQGKHETYGHKTPY
Take B4: in experiment [1], the koff turned out to be 0.00087 s⁻¹. Further, in experiment [2], the affinity, expressed as Kd, was 22 nM.

B5: CCL5 (ligand)
chain: SPYSSDTTPCCFAYIARPLPRAHIKEYFYTSGKCSNPAVVFVTRKNRQVCANPEKKWVREYINSLEMS
Turning to B5, the koff in experiment [1] amounted to 0.00019 s⁻¹. The molecule further came in with a Kd in experiment [2] of 10 nM.

B6: CXCL14 (ligand)
chain: SKCKCSRKGPKIRYSDVKKLEMKPKYPHCEEKMVIITTKSVSRYRGQEHCLHPKLQSTKRFIKWYNAWNEKRRVYEE
Consider B6, for which the koff in experiment [1] came out at 0.0019 s⁻¹. For the same molecule, binding in experiment [2] was characterised by a dissociation constant (Kd) of 45 nM.

B7: CCL11 (ligand)
chain: not shown
In experiment [1], B7 showed a koff of 0.0045 s⁻¹. Further, binding in experiment [2] was put at a Kd of 72 nM.

B8: CCL26 (ligand)
chain: TRGSDISKTCCFQYSHKPLPWTWVRSYEFTSNSCSQRAVIFTTKRGKKVCTHPRKKWVQKYISLLKTPKQL
As to B8, in experiment [1], the koff was 0.00093 s⁻¹. Besides, the dissociation constant Kd in experiment [2] was determined as 26 nM.

B9: CXCL9 (ligand)
chain: TPVVRKGRCSCISTNQGTIHLQSLKDLKQFAPSPSCEKIEIIATLKNGVQTCLNPDSADVKELIKKWEKQVSQKKKQKNGKKHQKKKVLKVRKSQRSRQKKTT
Molecule B9 yielded a koff in experiment [1] of 0.00085 s⁻¹. This molecule also returned a Kd in experiment [2] of 12 nM.
